From patent publication US20030068675, “Position dependent recognition of GNN nucleotide triplets by zinc fingers” (published 2003)

What was measured:
Test in all cases: EMSA
Settings in all cases: tags: MBP fusion
ZFP SBS#1397 = ZFP SBS#1397 (synthetic)
Procedure, shortened: (§1)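 Purified ZFP was titrated against labeled double-stranded target (1 nM or lower, at least 10-fold below expected Kd) carrying the natural binding site with flanks. Binding buffer was 10 mM Tris pH 7.5, 100 mM KCl, 1 mM MgCl2, 0.1 mM ZnCl2, 5 mM DTT, 10% glycerol, 0.02% BSA, with equilibration for at least 45 min. Bound and free target were separated on a 10% polyacrylamide gel.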

ZFP SBS#1396 = molecular target: T1, ZFP SBS#1396 (synthetic)
T1 chain: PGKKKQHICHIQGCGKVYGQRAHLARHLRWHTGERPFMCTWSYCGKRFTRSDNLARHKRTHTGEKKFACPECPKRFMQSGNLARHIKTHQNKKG
Procedure, shortened: as §1

ZFP SBS#1395 = ZFP SBS#1395 (synthetic)
Chain of ZFP SBS#1395 (synthetic) (chain, as listed by the source): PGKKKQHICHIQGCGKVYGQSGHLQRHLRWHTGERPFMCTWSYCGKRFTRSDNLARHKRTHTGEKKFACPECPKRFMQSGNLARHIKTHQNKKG
Procedure, shortened: as §1

ZFP SBS#1363 = molecular target: T2, ZFP SBS#1363 (synthetic)
T2 chain: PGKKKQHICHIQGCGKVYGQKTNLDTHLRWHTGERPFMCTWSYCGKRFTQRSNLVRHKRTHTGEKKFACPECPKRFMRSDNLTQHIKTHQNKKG
Procedure, shortened: as §1

ZFP SBS#1361 = molecular target: T3, ZFP SBS#1361 (synthetic)
T3 chain: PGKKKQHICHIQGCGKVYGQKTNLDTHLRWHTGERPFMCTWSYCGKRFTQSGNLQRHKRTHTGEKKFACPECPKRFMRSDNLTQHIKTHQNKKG
Procedure, shortened: as §1

ZFP SBS#1362 = ZFP SBS#1362 (synthetic)
Procedure, shortened: as §1

ZFP SBS#1403 = ZFP SBS#1403 (synthetic)
Procedure, shortened: as §1

ZFP SBS#1373 = molecular target: T4, ZFP SBS#1373 (synthetic, UniProt P08047)
T4 chain: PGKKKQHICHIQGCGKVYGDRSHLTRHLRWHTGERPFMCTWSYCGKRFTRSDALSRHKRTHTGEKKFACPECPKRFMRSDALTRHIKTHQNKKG
Procedure, shortened: as §1

ZFP SBS#1366 = molecular target: T5, ZFP SBS#1366 (synthetic)
T5 chain: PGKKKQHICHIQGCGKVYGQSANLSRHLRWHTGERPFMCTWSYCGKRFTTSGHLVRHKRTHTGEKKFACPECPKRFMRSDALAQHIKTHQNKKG
Procedure, shortened: as §1

ZFP SBS#1364 = molecular target: T6, ZFP SBS#1364 (synthetic)
T6 chain: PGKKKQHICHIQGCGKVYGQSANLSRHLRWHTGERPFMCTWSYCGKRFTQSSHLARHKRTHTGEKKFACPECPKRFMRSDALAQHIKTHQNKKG
Procedure, shortened: as §1

ZFP SBS#1367 = molecular target: T7, ZFP SBS#1367 (synthetic)
T7 chain: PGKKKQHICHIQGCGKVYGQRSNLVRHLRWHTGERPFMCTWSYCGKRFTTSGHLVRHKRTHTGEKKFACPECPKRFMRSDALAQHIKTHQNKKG
Procedure, shortened: as §1

ZFP SBS#1365 = molecular target: T8, ZFP SBS#1365 (synthetic)
T8 chain: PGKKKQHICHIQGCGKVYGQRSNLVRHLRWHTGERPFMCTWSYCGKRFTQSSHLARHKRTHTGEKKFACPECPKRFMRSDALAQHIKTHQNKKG
Procedure, shortened: as §1

ZFP SBS#1379 = molecular target: T9, ZFP SBS#1379 (synthetic)
T9 chain: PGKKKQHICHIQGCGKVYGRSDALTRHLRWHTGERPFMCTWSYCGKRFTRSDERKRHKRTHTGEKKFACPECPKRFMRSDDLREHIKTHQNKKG
Procedure, shortened: as §1

ZFP SBS#1378 = molecular target: T10, ZFP SBS#1378 (synthetic)
T10 chain: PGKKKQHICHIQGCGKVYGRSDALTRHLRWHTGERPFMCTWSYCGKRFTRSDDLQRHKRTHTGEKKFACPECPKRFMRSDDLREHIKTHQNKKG
Procedure, shortened: as §1

ZFP SBS#1375 = molecular target: T11, ZFP SBS#1375 (synthetic)
T11 chain: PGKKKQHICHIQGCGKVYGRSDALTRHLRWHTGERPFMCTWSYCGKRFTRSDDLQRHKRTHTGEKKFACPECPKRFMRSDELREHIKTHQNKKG
Procedure, shortened: as §1

ZFP SBS#1377 = molecular target: T12, ZFP SBS#1377 (synthetic, UniProt P08047)
T12 chain: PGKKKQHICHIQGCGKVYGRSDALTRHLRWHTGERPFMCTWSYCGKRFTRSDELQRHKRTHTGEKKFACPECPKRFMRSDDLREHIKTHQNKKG
Procedure, shortened: as §1

ZFP SBS#1376 = molecular target: T13, ZFP SBS#1376 (synthetic)
T13 chain: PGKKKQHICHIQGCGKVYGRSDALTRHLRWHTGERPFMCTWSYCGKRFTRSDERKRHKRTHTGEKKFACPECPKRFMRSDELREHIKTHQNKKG
Procedure, shortened: as §1

ZFP SBS#1374 = molecular target: T14, ZFP SBS#1374 (synthetic, UniProt P08047)
T14 chain: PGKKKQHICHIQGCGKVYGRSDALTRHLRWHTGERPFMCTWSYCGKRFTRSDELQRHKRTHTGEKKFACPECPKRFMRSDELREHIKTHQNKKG
Procedure, shortened: as §1

ZFP SBS#262 = ZFP SBS#262 (synthetic)
Chain of ZFP SBS#262 (synthetic) (chain, as listed by the source): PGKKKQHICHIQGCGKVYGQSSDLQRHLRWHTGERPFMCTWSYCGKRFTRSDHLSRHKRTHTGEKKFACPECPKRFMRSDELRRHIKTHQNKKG
Procedure, shortened: as §1

ZFP SBS#263 = ZFP SBS#263 (synthetic, UniProt P08047)
Chain of ZFP SBS#263 (P08047 other isoform, or with tags, fused parts or gaps): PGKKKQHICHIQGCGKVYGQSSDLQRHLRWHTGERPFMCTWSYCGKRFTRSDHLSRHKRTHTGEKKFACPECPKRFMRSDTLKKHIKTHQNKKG
Procedure, shortened: as §1

ZFP SBS#1386 = molecular target: T15, ZFP SBS#1386 (synthetic)
T15 chain: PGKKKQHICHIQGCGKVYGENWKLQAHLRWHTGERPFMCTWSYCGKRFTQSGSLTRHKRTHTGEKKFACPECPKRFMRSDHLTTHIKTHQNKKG
Procedure, shortened: as §1

ZFP SBS#1385 = ZFP SBS#1385 (synthetic)
Chain of ZFP SBS#1385 (synthetic) (chain, as listed by the source): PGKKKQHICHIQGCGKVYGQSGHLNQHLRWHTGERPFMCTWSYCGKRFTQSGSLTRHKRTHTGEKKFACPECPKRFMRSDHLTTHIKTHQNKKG
Procedure, shortened: as §1

ZFP SBS#1400 = molecular target: T16, ZFP SBS#1400 (synthetic)
T16 chain: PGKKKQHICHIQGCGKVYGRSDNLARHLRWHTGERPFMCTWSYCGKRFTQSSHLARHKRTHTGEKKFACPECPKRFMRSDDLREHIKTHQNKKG
Procedure, shortened: as §1

ZFP SBS#1381 = molecular target: T17, ZFP SBS#1381 (synthetic)
T17 chain: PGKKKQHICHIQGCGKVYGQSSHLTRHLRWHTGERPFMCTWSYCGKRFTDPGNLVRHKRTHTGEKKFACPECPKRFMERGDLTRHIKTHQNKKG
Procedure, shortened: as §1

ZFP SBS#1382 = molecular target: T18, ZFP SBS#1382 (synthetic)
T18 chain: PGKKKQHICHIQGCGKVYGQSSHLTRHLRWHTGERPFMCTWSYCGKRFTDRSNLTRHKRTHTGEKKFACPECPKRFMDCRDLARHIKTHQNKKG
Procedure, shortened: as §1

ZFP SBS#1380 = molecular target: T19, ZFP SBS#1380 (synthetic)
T19 chain: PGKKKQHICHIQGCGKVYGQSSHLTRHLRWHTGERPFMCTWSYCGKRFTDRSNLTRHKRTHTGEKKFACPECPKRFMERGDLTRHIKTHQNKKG
Procedure, shortened: as §1

ZFP SBS#1383 = molecular target: T20, ZFP SBS#1383 (synthetic)
T20 chain: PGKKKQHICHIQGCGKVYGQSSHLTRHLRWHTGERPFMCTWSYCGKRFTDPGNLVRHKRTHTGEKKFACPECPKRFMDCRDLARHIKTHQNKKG
Procedure, shortened: as §1

ZFP SBS#1394 = ZFP SBS#1394 (synthetic, UniProt P08047)
Chain of ZFP SBS#1394 (P08047 other isoform, or with tags, fused parts or gaps): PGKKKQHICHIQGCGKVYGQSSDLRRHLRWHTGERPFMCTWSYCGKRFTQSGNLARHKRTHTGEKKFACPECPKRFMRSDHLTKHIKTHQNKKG
Procedure, shortened: as §1

ZFP SBS#1393 = ZFP SBS#1393 (synthetic)
Procedure, shortened: as §1

ZFP SBS#1384 = molecular target: T21, ZFP SBS#1384 (synthetic, UniProt P08047)
T21 chain: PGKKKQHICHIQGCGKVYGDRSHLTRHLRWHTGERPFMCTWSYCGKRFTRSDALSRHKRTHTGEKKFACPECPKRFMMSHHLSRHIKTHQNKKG
Procedure, shortened: as §1

ZFP SBS#1360 = molecular target: T22, ZFP SBS#1360 (synthetic)
T22 chain: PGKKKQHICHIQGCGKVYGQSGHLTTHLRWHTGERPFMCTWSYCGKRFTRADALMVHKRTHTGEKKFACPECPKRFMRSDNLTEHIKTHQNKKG
Procedure, shortened: as §1

ZFP SBS#1369 = molecular target: T23, ZFP SBS#1369 (synthetic)
T23 chain: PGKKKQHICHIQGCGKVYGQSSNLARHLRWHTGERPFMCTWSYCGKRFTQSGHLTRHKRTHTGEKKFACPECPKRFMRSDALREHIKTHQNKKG
Procedure, shortened: as §1

ZFP SBS#1368 = molecular target: T24, ZFP SBS#1368 (synthetic)
T24 chain: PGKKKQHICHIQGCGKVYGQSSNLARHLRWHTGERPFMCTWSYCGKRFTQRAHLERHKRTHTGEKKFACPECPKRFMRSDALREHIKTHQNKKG
Procedure, shortened: as §1

ZFP SBS#1389 = molecular target: T25, ZFP SBS#1389 (synthetic)
T25 chain: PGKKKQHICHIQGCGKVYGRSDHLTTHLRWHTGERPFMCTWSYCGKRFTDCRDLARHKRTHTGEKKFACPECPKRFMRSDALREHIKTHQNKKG
Procedure, shortened: as §1

ZFP SBS#1329 = molecular target: T26, ZFP SBS#1329 (synthetic)
T26 chain: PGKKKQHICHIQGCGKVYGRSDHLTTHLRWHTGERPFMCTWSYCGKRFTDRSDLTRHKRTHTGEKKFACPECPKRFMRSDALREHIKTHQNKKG
Procedure, shortened: as §1

ZFP SBS#1331 = molecular target: T27, ZFP SBS#1331 (synthetic)
T27 chain: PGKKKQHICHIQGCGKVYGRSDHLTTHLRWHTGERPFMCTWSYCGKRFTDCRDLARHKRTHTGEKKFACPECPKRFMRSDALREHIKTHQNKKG
Procedure, shortened: as §1

Chain of ZFP SBS#1397 (synthetic) (chain, as listed by the source): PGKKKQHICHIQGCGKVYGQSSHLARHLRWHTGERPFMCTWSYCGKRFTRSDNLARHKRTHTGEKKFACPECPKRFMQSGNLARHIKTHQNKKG

B1: GAAGAGGGA (dsDNA)
DNA 1: GAAGAGGGA
DNA 2: TCCCTCTTC
Binder B1 has a Kd (ZFP SBS#1397) of 0.14 nM, a Kd (ZFP SBS#1396) of 0.107 nM and a Kd (ZFP SBS#1395) of 0.025 nM.

B2: AAGGAAAAA (dsDNA)
DNA 1: AAGGAAAAA
DNA 2: TTTTTCCTT
For B2, the Kd (ZFP SBS#1363) was 74.1 nM, the Kd (ZFP SBS#1361) was 0.835 nM and the Kd (ZFP SBS#1362) was 0.332 nM.

B3: ATGGCAATG (dsDNA)
DNA 1: ATGGCAATG
DNA 2: CATTGCCAT
Binder B3 has a Kd (ZFP SBS#1403) of 0.07 nM.

B4: GTGGTGGGC (dsDNA)
DNA 1: GTGGTGGGC
DNA 2: GCCCACCAC
With B4 the Kd (ZFP SBS#1373) was 0.025 nM.

B5: ATGGGTGAA (dsDNA)
DNA 1: ATGGGTGAA
DNA 2: TTCACCCAT
B5 gave a Kd (ZFP SBS#1366) of 22.6 nM, a Kd (ZFP SBS#1364) of 1.22 nM and a Kd (ZFP SBS#1367) of 1.03 nM. It also gave a Kd (ZFP SBS#1365) of 0.152 nM.

B6: CCGGCGGTG (dsDNA)
DNA 1: CCGGCGGTG
DNA 2: CACCGCCGG
Binder B6 has a Kd (ZFP SBS#1379) of 0.25 nM, a Kd (ZFP SBS#1378) of 0.012 nM and a Kd (ZFP SBS#1375) of 8 pM. It also gave a Kd (ZFP SBS#1377) of 0.012 nM, a Kd (ZFP SBS#1376) of 0.858 nM and a Kd (ZFP SBS#1374) of 3 pM.

B7: GCGGGGGCT (dsDNA)
DNA 1: GCGGGGGCT
DNA 2: AGCCCCCGC
Binder B7 has a Kd (ZFP SBS#262) of 20 nM and a Kd (ZFP SBS#263) of 1 nM.

B8: TGGGCAAGA (dsDNA)
DNA 1: TGGGCAAGA
DNA 2: TCTTGCCCA
B8 showed a Kd (ZFP SBS#1386) of 0.193 nM and a Kd (ZFP SBS#1385) of 0.229 nM.

B9: CCGGGTGAG (dsDNA)
DNA 1: CCGGGTGAG
DNA 2: CTCACCCGG
B9 was tested, and the Kd (ZFP SBS#1400) was 0.371 nM.

B10: GCCGACGGT (dsDNA)
DNA 1: GCCGACGGT
DNA 2: ACCGTCGGC
For B10, the Kd (ZFP SBS#1381) was 0.23 nM, the Kd (ZFP SBS#1382) was 3.1 nM and the Kd (ZFP SBS#1380) was 0.076 nM. It also gave a Kd (ZFP SBS#1383) of 1.74 nM.

B11: TGGGAAGCT (dsDNA)
DNA 1: TGGGAAGCT
DNA 2: AGCTTCCCA
B11 showed a Kd (ZFP SBS#1394) of 0.04 nM and a Kd (ZFP SBS#1393) of 0.1 nM.

B12: GGTGTGGGC (dsDNA)
DNA 1: GGTGTGGGC
DNA 2: GCCCACACC
For B12, the Kd (ZFP SBS#1384) was 0.013 nM.

B13: CAGTTGTGA (dsDNA)
DNA 1: CAGTTGTGA
DNA 2: TCACAACTG
B13 was tested, and the Kd (ZFP SBS#1360) was 41.7 nM.

B14: CTGGGAGAT (dsDNA)
DNA 1: CTGGGAGAT
DNA 2: ATCTCCCAG
In the case of B14, the Kd (ZFP SBS#1369) is reported as 0.227 nM and the Kd (ZFP SBS#1368) is reported as 0.051 nM.

B15: CTGGCCTGG (dsDNA)
DNA 1: CTGGCCTGG
DNA 2: CCAGGCCAG
B15 gave a Kd (ZFP SBS#1389) of 0.175 nM, a Kd (ZFP SBS#1329) of 0.68 nM and a Kd (ZFP SBS#1331) of 0.388 nM.
